Data as given in patent US6191256A, “Recombinant factor VIII binding peptides” (Bayer Corporation, priority 1998, dated 2001).

Assays:
[1] = molecular target: T1, rFVIII (Homo sapiens, UniProt P00451); experiment: confirmatory binding assay in filtration plate format using 14C-rFVIII; conditions: for Total dpm / 0.5M CaCl2 % total / 2% acetic acid % total / 2% acetic acid dpm / 0.5M CaCl2 dpm / beads % total / beads dpm: Table 4; for Total dpm / beads % total / beads dpm: 14C-rFVIII 30 nM; for 0.5M CaCl2 % total / 2% acetic acid % total / 2% acetic acid dpm / 0.5M CaCl2 dpm: 14C-rFVIII 30 nM in PPF, 5 mg beads; for 0.5M CaCl2 dpm: 5.0 × 10^15 dpm/mole, 5° C.; for beads % total / beads dpm: remaining on beads after washes
Protocol: Confirmatory binding assays were performed in a filtration plate format using individual peptide sequences synthesized directly onto the TOYOPEARL AF amino 650 M resin, at a final substitution density of 0.1 mmole/g resin. A slurry of each individual peptide sequence was prepared using deionized water. A 100 μL volume of beads (corresponding to 5 mg) was loaded into each well of the filtration plate (MULTISCREEN Assay System, Millipore, Bedford, Mass.), in triplicate for each peptide sequence. Beads were washed with 20% ethanol and incubated overnight with equilibration buffer (20 mM imidazole, 10 mM
CaCl2, 0.105 M NaCl, pH 6.9). A 100 μL aliquot of ^14 C-rFVIII diluted in neat PPF to a final concentration of 20-30 nM was loaded into each well and incubated for 1 hour at 5° C. Filtrate (unbound ^14 C-rFVIII) was collected into a microtiter plate and transferred to liquid scintillation vials for dpm counting. Beads were washed sequentially with: 100 μL of equilibration buffer for 15 minutes, 200 μL of 0.5 M CaCl2 (in equilibration buffer), 200 μL of 1.0 M CaCl2 (in equilibration buffer), and 200 uL of 2% by volume glacial acetic acid in water, for 1 hour each at 5° C. Scintillation counting on the unbound ^14 C-rFVIII (plus equilibration buffer wash), salt and acid washes, as well as on the beads was then performed and the overall mass balance calculated.
Beads presenting the appropriate peptide sequence on the surface were placed in the filtration plate wells and incubated sequentially with equilibration buffer, ^14 C-rFVIII in PPF, equilibration buffer, 0.5 M CaCl2 wash, 1.0 M CaCl2 wash and 2% acetic acid wash. After each incubation, filtrate was collected in microtiter plates, and dpm counted on each
In Table 3, the ^14 C-rFVIII was loaded at 20 nM (in PPF) and the radiolabeling yield was at 3.0×10^15 dpm/mole. In Table 4, the ^14 C-rFVIII was loaded at 30 nM (in PPF) and the radiolabeling yield was at 5.0×10^15 dpm/mole.

[2] = molecular target: T1, rFVIII; experiment: column format binding assay, rFVIII mass per fraction by sandwich capture ELISA for the light chain; conditions: for 0.5M CaCl2 ng / 0.5M CaCl2 % total / 2% acetic acid % total / 2% acetic acid ng / Flow through % total / Total ng / Flow through ng: Table 6; for Flow through ng: 10,000 ng rFVIII in 1:10 PPF injected, 5° C.; for ELISA results % total: Table 9, 0.5M CaCl2 fraction
Protocol: (§1) Immunoassay on rFVIII using a sandwich capture ELISA for the light chain and activity assay using a chromogenic substrate (COATEST Factor VIII kit from diaPharma, Franklin, Ohio) were performed on a BIOMEK® automated liquid handling system from Beckman Instruments (Brea, Calif.). The monoclonal antibody for rFVIII light chain (known as C7F7), the ELISA assay standard (lot A70K019), and the control for the activity assay (lot A70A001 @ 140 IU/mL) were from the Bayer Corporation (Berkeley, Calif.). The standard for the activity assay was at 11.2 IU/mL (Bayer, Clayton, N.C.), calibrated against the MEGA 1 standard, which is a working standard used by American manufacturers for measuring factor VIII activity (21).
(§2) Additional confirmatory binding assay and performance of the discovered binding peptides in terms of total rFVIII and activity recovery was performed in a column chromatographic format on a microbore HPLC. The resins were packed into 0.4×5 cm columns (Thomson, Springfield, Va.) and tested on the MICHROM HPLC system (Michrom BioResources, Auburn, Calif.). The elution program for the trials utilized the following method. The column was pre-equilibrated with equilibration buffer (as above). A 1 mL aliquot of 1:10 PPF followed by 1 mL of rFVIII (10,000 ng) in 1:10 PPF were injected and allowed sufficient time to flow through the column using equilibration buffer. The column was then washed with step elutions of 0.5 M and 1.0 M CaCl2 in equilibration buffer. The column was exposed to equilibration buffer. Remaining protein was eluted with 2% by volume glacial acetic acid in water. Columns were kept at 5° C. during the chromatographic runs. For each 1 mL injection (equilibration buffer, 1:10 PPF and 10,000 ng rFVIII in 1:10 PPF), the chromatographic cycle was run for 45 minutes (injection, flow through, 0.5 M CaCl2, 1.0 M CaCl2, equilibration buffer, 2% acetic acid, equilibration buffer).
(§3) A Gilson FC204 fraction collector at the HPLC outlet collected individual eluates for further analysis. Each collection tube had 100 μL hSA added to it to stabilize the rFVIII. Fractions collected from the 2% acetic acid eluates were neutralized with 2 M Tris, pH 10.5 to bring the pH to neutrality. The fractions were analyzed for total protein by the integration of the absorbance at 280 nm, for rFVIII by immunoassay (sandwich capture ELISA), and for rFVIII activity by a chromogenic substrate assay.
Tables 5 and 6 present the results from the additional confirmatory binding assays using the column format. The chromatography method was run by injecting the samples at a flow rate of 865 μL/min (413 cm/hr). In order to provide a 10 minute residence time of sample in the column the flow was decreased to 17 μL/min (10 cm/hr) upon injection.
Following the incubation, the flow was set at 865 μL/min (413 cm/hr) for the step clutions of 0.5 M CaCl2, 1.0 M CaCl2, and 2% acetic acid. Results are expressed in terms of the total mass of rFVIII in each fraction, as determined by the sandwich capture ELISA assay for the rFVIII light chain. […] A control using a non-binding peptide sequence (IGF) is also shown for comparison--in this case, 95% of the rFVIII loaded to the column was collected in the flow through fraction. Additional controls with no

[3] = molecular target: T1, rFVIII; experiment: rFVIII activity recovery from peptide columns by chromogenic substrate assay (COATEST); assay type: biochemical; conditions: for 0.5M CaCl2 IU / 2% acetic acid % total / 2% acetic acid IU / Flow through % total / Total IU / 0.5M CaCl2 % total / Flow through IU: Table 8; for 0.5M CaCl2 % total: activity recovery; for Flow through IU: rFVIII activity in fraction; for Activity results % total: Table 9, 0.5M CaCl2 fraction
Protocol: as §1, §2, §3
Tables 7 and 8 list the sequences for which activity recovery was determined by a chromogenic substrate assay (COASTEST kit, diaPharma, Franklin, Ohio). Chromatographc conditions are the same as described above for the results from Tables 5 and 6. It can be

T1 sequence (P00451 20-2351): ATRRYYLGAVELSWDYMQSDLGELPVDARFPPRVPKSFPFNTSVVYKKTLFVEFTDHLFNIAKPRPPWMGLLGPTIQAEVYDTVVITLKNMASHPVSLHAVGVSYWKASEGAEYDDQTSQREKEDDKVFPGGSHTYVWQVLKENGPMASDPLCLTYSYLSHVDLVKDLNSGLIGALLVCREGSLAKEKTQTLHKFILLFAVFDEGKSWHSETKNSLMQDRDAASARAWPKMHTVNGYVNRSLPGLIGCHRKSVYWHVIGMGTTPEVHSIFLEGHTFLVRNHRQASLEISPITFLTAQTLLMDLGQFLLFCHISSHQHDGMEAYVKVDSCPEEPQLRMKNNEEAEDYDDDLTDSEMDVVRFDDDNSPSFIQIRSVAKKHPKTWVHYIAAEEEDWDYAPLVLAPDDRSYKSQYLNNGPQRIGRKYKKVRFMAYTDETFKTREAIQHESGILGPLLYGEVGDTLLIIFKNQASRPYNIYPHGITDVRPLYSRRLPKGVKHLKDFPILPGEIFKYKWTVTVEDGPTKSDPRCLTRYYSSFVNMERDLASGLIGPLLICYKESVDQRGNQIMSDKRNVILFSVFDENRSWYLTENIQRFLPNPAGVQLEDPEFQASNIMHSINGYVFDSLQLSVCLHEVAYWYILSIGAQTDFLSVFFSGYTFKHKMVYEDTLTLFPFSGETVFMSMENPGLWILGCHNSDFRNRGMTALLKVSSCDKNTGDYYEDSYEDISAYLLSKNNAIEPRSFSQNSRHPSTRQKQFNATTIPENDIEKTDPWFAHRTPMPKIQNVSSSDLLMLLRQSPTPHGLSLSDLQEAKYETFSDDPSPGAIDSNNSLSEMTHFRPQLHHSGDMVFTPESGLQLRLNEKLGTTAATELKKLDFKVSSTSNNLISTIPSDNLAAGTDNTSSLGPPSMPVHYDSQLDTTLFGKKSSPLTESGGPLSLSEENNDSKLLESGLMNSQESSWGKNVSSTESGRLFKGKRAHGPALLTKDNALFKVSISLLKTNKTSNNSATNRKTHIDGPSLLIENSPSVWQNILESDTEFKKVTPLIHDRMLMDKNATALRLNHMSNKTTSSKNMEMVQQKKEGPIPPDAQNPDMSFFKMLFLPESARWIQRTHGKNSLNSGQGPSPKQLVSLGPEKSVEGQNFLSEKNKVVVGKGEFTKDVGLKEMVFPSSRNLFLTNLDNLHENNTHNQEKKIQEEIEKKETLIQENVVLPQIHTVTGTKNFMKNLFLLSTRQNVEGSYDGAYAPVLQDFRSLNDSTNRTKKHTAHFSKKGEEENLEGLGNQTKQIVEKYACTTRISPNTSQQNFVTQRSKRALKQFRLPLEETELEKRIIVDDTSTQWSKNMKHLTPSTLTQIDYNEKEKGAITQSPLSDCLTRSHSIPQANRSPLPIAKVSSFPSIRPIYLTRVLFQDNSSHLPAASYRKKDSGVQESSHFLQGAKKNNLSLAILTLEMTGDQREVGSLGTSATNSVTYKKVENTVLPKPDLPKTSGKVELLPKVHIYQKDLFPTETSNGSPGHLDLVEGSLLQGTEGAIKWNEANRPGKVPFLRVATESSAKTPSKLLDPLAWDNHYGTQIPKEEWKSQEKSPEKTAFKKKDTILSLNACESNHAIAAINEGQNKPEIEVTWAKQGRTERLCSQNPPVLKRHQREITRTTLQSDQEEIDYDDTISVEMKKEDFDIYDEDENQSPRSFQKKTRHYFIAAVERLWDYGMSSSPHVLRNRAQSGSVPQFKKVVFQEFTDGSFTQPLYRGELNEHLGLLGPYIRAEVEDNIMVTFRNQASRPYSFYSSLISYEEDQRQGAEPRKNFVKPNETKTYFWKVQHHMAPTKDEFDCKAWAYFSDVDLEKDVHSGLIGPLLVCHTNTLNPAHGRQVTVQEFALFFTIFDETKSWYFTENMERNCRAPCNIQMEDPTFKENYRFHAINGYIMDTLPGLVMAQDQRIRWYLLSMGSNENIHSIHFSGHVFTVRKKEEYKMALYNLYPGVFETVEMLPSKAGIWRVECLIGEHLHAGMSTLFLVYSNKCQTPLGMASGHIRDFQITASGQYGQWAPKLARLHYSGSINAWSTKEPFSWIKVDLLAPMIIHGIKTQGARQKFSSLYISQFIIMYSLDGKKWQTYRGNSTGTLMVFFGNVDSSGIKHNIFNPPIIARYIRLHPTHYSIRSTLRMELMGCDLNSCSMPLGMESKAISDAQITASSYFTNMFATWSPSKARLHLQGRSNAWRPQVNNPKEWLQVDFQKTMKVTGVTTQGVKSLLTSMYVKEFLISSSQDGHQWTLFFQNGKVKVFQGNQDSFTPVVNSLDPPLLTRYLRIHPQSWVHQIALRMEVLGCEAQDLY
T1 sequence (P00451 1668-2351 limits assumed): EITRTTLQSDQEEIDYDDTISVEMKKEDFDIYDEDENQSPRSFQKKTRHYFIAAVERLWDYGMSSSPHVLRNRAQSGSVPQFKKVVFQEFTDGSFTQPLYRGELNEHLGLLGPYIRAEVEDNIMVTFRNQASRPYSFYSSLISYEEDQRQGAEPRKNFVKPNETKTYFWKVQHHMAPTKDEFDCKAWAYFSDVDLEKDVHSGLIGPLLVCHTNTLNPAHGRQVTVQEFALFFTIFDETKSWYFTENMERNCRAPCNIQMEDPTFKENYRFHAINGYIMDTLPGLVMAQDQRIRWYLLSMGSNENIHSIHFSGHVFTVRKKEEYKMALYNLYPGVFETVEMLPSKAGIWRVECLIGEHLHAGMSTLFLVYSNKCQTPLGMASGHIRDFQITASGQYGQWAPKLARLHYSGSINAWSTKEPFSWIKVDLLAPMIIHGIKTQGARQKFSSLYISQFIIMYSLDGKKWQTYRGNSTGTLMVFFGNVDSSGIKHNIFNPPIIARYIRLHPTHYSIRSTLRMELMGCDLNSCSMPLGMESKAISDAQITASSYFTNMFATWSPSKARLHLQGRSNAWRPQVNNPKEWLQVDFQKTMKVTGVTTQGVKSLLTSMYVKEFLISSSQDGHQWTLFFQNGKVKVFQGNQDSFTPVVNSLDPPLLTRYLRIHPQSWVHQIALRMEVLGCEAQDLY

Substance | Total dpm [1] [dpm] | 0.5M CaCl2 % total [1] [%] | 2% acetic acid % total [1] [%] | 2% acetic acid dpm [1] [dpm] | 0.5M CaCl2 dpm [1] [dpm] | beads % total [1] [%] | beads dpm [1] [dpm] | 0.5M CaCl2 ng [2] [ng] | 0.5M CaCl2 % total [2] [%] | 2% acetic acid % total [2] [%] | 2% acetic acid ng [2] [ng] | Flow through % total [2] [%] | Total ng [2] [ng] | Flow through ng [2] [ng] | 0.5M CaCl2 IU [3] [IU] | 2% acetic acid % total [3] [%] | 2% acetic acid IU [3] [IU] | Flow through % total [3] [%] | Total IU [3] [IU] | 0.5M CaCl2 % total [3] [%] | also measured
14 (EPRVIG) [compound 14] | 2184 | 91 | 6 | 130 | 1994 | 3 | 60 | 2850 | 32 | 1 | 75 | 66 | 8851 | 5828 | 14.7 | 0 | 0.00 | 73 | 58.6 | 25 | ELISA results % total [2]: 32%; Flow through IU [3]: 42.9 IU; Activity results % total [3]: 25%
15 (VYGVGG) [compound 15] | 2330 | 93 | 5 | 115 | 2162 | 2 | 53 | 4611 | 55 | 1 | 121 | 42 | 8427 | 3572 | 27.2 | 0 | 0.08 | 38 | 45.4 | 60 | ELISA results % total [2]: 55%; Flow through IU [3]: 17.3 IU; Activity results % total [3]: 60%
19 (FHFGLQ) [compound 19] | 2987 | 15 | 72 | 2148 | 457 | 13 | 382 | 1075 | 25 | 60 | 2569 | 0 | 4283 | 0 | 9.9 | 7 | 1.4 | 2 | 19.5 | 51 | Flow through IU [3]: 0.5 IU

Now from value to substance, other results behind:

Total dpm [1] [dpm] | 0.5M CaCl2 % total [1] [%] | 2% acetic acid % total [1] [%] | 2% acetic acid dpm [1] [dpm] | 0.5M CaCl2 dpm [1] [dpm] | beads % total [1] [%] | beads dpm [1] [dpm] | 0.5M CaCl2 ng [2] [ng] | 0.5M CaCl2 % total [2] [%] | 2% acetic acid % total [2] [%] | 2% acetic acid ng [2] [ng] | Flow through % total [2] [%] | Total ng [2] [ng] | Flow through ng [2] [ng] | 0.5M CaCl2 IU [3] [IU] | 2% acetic acid % total [3] [%] | 2% acetic acid IU [3] [IU] | Flow through % total [3] [%] | Total IU [3] [IU] | 0.5M CaCl2 % total [3] [%] | Substance | also measured
3884 | 12 | 54 | 2099 | 485 | 33 | 1300 | 36 | 1 | 95 | 4719 | 0 | 4966 | 0 | 0.4 | 45 | 3.5 | 0 | 7.8 | 4 | 20 (WHHHRG) [compound 20] | Flow through IU [3]: 0.0 IU
3484 | 21 | 63 | 2208 | 722 | 16 | 554 | 1239 | 22 | 60 | 3284 | 0 | 5510 | 0 | 11.4 | 19 | 4.1 | 0 | 21.2 | 53 | 21 (HFQIFG) [compound 21] | Flow through IU [3]: 0.0 IU
4116 | 16 | 19 | 783 | 675 | 65 | 2658 | 4 | 0 | 100 | 4500 | 0 | 4504 | 0 | 0.0 | 100 | 2.3 | 0 | 2.3 | 0 | 22 (FVFLVR) [compound 22] | binding of rFVIII in words ([1]; plate format): tight binding; Flow through IU [3]: 0.0 IU
